Test results reported in publication PMC3750979.

Assays:
NHis-Purβ I-II-III [1] = target: T1, NHis-Purβ I-II-III (Mus musculus, UniProt O35295 41-303); test: competition
T1 sequence: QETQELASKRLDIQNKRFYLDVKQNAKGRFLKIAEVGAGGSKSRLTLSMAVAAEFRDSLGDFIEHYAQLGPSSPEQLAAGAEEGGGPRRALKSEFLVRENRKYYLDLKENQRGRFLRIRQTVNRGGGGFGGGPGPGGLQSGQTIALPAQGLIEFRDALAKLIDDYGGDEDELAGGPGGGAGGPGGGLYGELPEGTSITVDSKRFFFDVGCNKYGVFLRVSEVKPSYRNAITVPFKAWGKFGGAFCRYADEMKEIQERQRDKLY

NHis-Purβ (full-length) [2] = target: T2, NHis-Purβ (full-length) (Mus musculus, UniProt O35295 1-324); test: competition
T2 sequence: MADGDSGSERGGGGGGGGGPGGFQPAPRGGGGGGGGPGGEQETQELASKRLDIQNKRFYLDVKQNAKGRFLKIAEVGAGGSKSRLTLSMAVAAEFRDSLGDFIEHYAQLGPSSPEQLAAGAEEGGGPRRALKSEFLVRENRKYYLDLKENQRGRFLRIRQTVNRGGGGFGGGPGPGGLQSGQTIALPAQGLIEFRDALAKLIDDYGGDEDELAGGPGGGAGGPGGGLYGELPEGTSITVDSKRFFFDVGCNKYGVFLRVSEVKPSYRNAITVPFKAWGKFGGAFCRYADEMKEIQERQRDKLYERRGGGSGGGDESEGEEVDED

NHis-Purβ I-II-III [3] = target: T1, NHis-Purβ I-II-III; test: ssDNA-binding ELISA
NHis-Purβ (full-length) [4] = target: T2, NHis-Purβ (full-length); test: ssDNA-binding ELISA
NHis-Purβ III = target: T3, NHis-Purβ III (Mus musculus, UniProt O35295 209-303); test: ssDNA-binding ELISA
T3 sequence: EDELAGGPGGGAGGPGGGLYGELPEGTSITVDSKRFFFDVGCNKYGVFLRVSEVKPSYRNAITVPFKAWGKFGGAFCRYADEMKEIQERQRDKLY

With GGGAGCAGAACAGAGGAATGCAGTGGAAGAGA (ssDNA) [PE32-bF] the IC50 (NHis-Purβ I-II-III [1]) was 1 ± 0.3 nM, the IC50 (NHis-Purβ (full-length) [2]) was 1.2 ± 0.2 nM and the “apparent K (half saturation)” value (NHis-Purβ I-II-III [3]) was 0.22 ± 0.05 nM. The “apparent K (half saturation)” value (NHis-Purβ (full-length) [4]) was 0.16 ± 0.05 nM and the “apparent K (half saturation)” value (NHis-Purβ III) was 1.8 ± 0.74 nM.
